In paper PMC6718625, “CryoEM structures of Arabidopsis DDR complexes involved in RNA-directed DNA methylation” (Nature Communications, 2019):

B4: 6xHis-RDM1 (natural protein, Arabidopsis)
chain: SSMTMELRPSGDSGSSDVDAEISDGFSPLDTSHRDVADEGSLLRRAEMYQDYMKQVPIPTNRGSLIPFTSWVGLSISMKQLYGQPLHYLTNVLLQRWDQSRFGTDSEEQRLDSIIHPTKAEATIWLVEEIHRLTPSHLHMALLWRSDPMYHSFIDPIFPEK
notes: RDM1, Arabidopsis; also called His tag-RDM1; source: E. coli Rosetta2 (DE3), pCDFDuet-1, co-expressed with DMS3; purified within the DR or DDR′ complex, or in lysate (pulldown); not shown: 6xHis, N-terminal, kept

Tests used:
[1] = target: the molecule itself; experiment: SEC; His tag affinity-purified DMS3 WT or G339E on analytical Superdex 200 10/300 GL, 20 mM HEPES-KOH pH 7.5, 150 mM NaCl
[2] = target: B4; experiment: cryo-EM structure; single-particle cryoEM of the purified DR complex, 3.6 Å; details: both partners purified
[3] = target: the molecule itself; experiment: as above
[4] = target: T1, DRD1 peptide 7 with C-terminal Strep II tag (Arabidopsis, UniProt Q9SIW2 45-99); experiment: cryo-EM structure; single-particle cryoEM of the purified DDR′ complex (DRD1 peptide 7-DMS3-RDM1), 3.5 Å; details: both partners purified
T1 construct: DRD1, Arabidopsis, region called peptide 7 in the N-terminal domain; source: E. coli Rosetta2 (DE3), pET21b, co-expressed with RDM1 and DMS3, purified as DDR′ complex (Strep Trap HP, Superdex 200); not shown: Strep II, C-terminal, kept
T1 sequence: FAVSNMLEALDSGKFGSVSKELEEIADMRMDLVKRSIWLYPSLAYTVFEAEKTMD

B1: His-DMS3 WT (natural protein, Arabidopsis, UniProt Q94A79 1-420, looked up)
chain: MYPTGQQISFQTTPLNVQDPTRMMNLDQSSPVARNETQNGGGIAHAEFAMFNSKRLESDLEAMGNKIKQHEDNLKFLKSQKNKMDEAIVDLQVHMSKLNSSPTPRSENSDNSLQGEDINAQILRHENSAAGVLSLVETLHGAQASQLMLTKGVVGVVAKLGKVNDENLSQILSNYLGTRSMLAVVCRNYESVTALEAYDNHGNIDINAGLHCLGSSIGREIGDSFDAICLENLRPYVGQHIADDLQRRLDLLKPKLPNGECPPGFLGFAVNMIQIDPAYLLCVTSYGYGLRETLFYNLFSRLQVYKTRADMISALPCISDGAVSLDGGIIRKTGIFNLGNRDEVNVRFAKPTASRTMDNYSEAEKKMKELKWKKEKTLEDIKREQVLREHAVFNFGKKKEEFVRCLAQSSCTNQPMNTPR
notes: DMS3, Arabidopsis; also called recombinant DMS3 WT; source: E. coli Rosetta2 (DE3), pCDF-His-DMS3, purified (Ni-NTA agarose)
[1]
  binding result: binds

B2: DMS3 (recombinant, co-expressed with His-RDM1) (natural protein, Arabidopsis)
chain: YPTGQQISFQTTPLNVQDPTRMMNLDQSSPVARNETQNGGGIAHAEFAMFNSKRLESDLEAMGNKIKQHEDNLKFLKSQKNKMDEAIVDLQVHMSKLNSSPTPRSENSDNSLQGEDINAQILRHENSAAGVLSLVETLHGAQASQLMLTKGVVGVVAKLGKVNDENLSQILSNYLGTRSMLAVVCRNYESVTALEAYDNHGNIDINAGLHCLGSSIGREIGDSFDAICLENLRPYVGQHIADDLQRRLDLLKPKLPNGECPPGFLGFAVNMIQIDPAYLLCVTSYGYGLRETLFYNLFSRLQVYKTRADMISALPCISDGAVSLDGGIIRKTGIFNLGNRDEVNVRFAKPTASRTMDNYSEAEKKMKELKWKKEKTLEDIKREQVLREHAVFNFGKKKEEFVRCLAQSSCTNQPMNTPR
notes: DMS3, Arabidopsis; residues 1-42 and 410-420 are said not to be visible in the maps; DMS3h, DMS3hc1 and DMS3hc2 are conformational states of the same chain in the structures; also called DMS3 WT; DMS3h; source: E. coli Rosetta2 (DE3), pCDFDuet-1, co-expressed with His-RDM1; purified within the DR or DDR′ complex, or in lysate (pulldown)
[2]
  stoichiometry N: 2 DMS3 per RDM1 (4:2)
[3]
  stoichiometry N: 2

B3: DR complex (DMS3-RDM1) (complex, Arabidopsis)
chain 1: SSMTMELRPSGDSGSSDVDAEISDGFSPLDTSHRDVADEGSLLRRAEMYQDYMKQVPIPTNRGSLIPFTSWVGLSISMKQLYGQPLHYLTNVLLQRWDQSRFGTDSEEQRLDSIIHPTKAEATIWLVEEIHRLTPSHLHMALLWRSDPMYHSFIDPIFPEK
chain 2: YPTGQQISFQTTPLNVQDPTRMMNLDQSSPVARNETQNGGGIAHAEFAMFNSKRLESDLEAMGNKIKQHEDNLKFLKSQKNKMDEAIVDLQVHMSKLNSSPTPRSENSDNSLQGEDINAQILRHENSAAGVLSLVETLHGAQASQLMLTKGVVGVVAKLGKVNDENLSQILSNYLGTRSMLAVVCRNYESVTALEAYDNHGNIDINAGLHCLGSSIGREIGDSFDAICLENLRPYVGQHIADDLQRRLDLLKPKLPNGECPPGFLGFAVNMIQIDPAYLLCVTSYGYGLRETLFYNLFSRLQVYKTRADMISALPCISDGAVSLDGGIIRKTGIFNLGNRDEVNVRFAKPTASRTMDNYSEAEKKMKELKWKKEKTLEDIKREQVLREHAVFNFGKKKEEFVRCLAQSSCTNQPMNTPR
notes: RDM1, Arabidopsis; DMS3, Arabidopsis; residues 1-42 and 410-420 are said not to be visible in the maps; Stoichiometry 4 DMS3 : 2 RDM1 by cryo-EM; also called DMS3-RDM1 complex; source: E. coli Rosetta2 (DE3), co-expressed from pCDFDuet-1, purified (His Trap HP or, with DRD1 peptide 7, Strep Trap HP; Superdex 200); not shown: 6xHis, N-terminal, kept; copies: 2 + 4
[4]
  stoichiometry N: 1 peptide per DR complex

## B4
[3]
  stoichiometry N: 2
